{
  "source": "paper PMC7078158",
  "about": "“Enzymes Catalyzing Crotonyl-CoA Conversion to Acetoacetyl-CoA During the Autotrophic CO2 Fixation in Metallosphaera sedula” (Frontiers in Microbiology, 2020)",
  "proteins": {"B1": {"name": "crotonyl-CoA hydratase Msed_0384 (Metallosphaera sedula DSM 5348) (protein)", "chain": "MRTVIVEKGDVGIIRLNRPEKLNAINMEMVYDLVEALNELKSQVRAVIITGNGKAFSAGADVKEMLDMSIEQVTREGHMPLWDALRGFRKPVIAALNGVAAGGGLELAMACDMIVAGESARLGQPEINLGIIPGAGGTQRLTRTVGKYRAMEMVLTGRLITAWDAYRMGLVTKVVPDEALIPEAMRLAREITGKSGFAVELGKEAVNRALDTLLQQGLDLERRNFYVTLVSQDGREGMKAFLEKRKPEWKT", "notes": "full-length, N-terminal His10-tag (pET16b), recombinant in E. coli Rosetta 2 (DE3)"}},
  "assay_type_in_all_cases": "biochemical, Metallosphaera sedula",
  "key": {"[1]": {"substrate": "C=CC(=O)SCCNC(=O)CCNC(=O)[C@H](O)C(C)(C)COP(=O)(O)OP(=O)(O)OC[C@H]1O[C@@H](n2cnc3c(N)ncnc32)[C@H](O)[C@@H]1OP(=O)(O)O", "assay": "UHPLC, 3-hydroxypropionyl-CoA formation", "settings": "hydratase reaction, 100 mM Tris-HCl pH 7.8, 65 °C, apparent Km", "description": "UHPLC, 3-hydroxypropionyl-CoA formation on crotonyl-CoA hydratase Msed_0384"}, "[2]": {"substrate": "C=C(C)C(=O)SCCNC(=O)CCNC(=O)[C@H](O)C(C)(C)COP(=O)(O)OP(=O)(O)OC[C@H]1O[C@@H](n2cnc3c(N)ncnc32)[C@H](O)[C@@H]1OP(=O)(O)O", "assay": "UHPLC, 3-hydroxy-2-methylpropionyl-CoA formation", "settings": "hydratase reaction, 100 mM Tris-HCl pH 7.8, 65 °C, apparent Km", "description": "UHPLC, 3-hydroxy-2-methylpropionyl-CoA formation on crotonyl-CoA hydratase Msed_0384"}, "[3]": {"substrate": "CCCCC/C=C/C(=O)SCCNC(=O)CCNC(=O)[C@H](O)C(C)(C)COP(=O)(O)OP(=O)(O)OC[C@H]1O[C@@H](n2cnc3c(N)ncnc32)[C@H](O)[C@@H]1OP(=O)(O)O", "assay": "UHPLC, 3-hydroxyoctanoyl-CoA formation", "settings": "hydratase reaction, 100 mM Tris-HCl pH 7.8, 65 °C, apparent Km", "description": "UHPLC, 3-hydroxyoctanoyl-CoA formation on crotonyl-CoA hydratase Msed_0384"}, "[4]": {"substrate": "C/C=C/C(=O)SCCNC(=O)CCNC(=O)[C@H](O)C(C)(C)COP(=O)(O)OP(=O)(O)OC[C@H]1O[C@@H](n2cnc3c(N)ncnc32)[C@H](O)[C@@H]1OP(=O)(O)O", "assay": "UHPLC, 3-hydroxybutyryl-CoA formation", "settings": "hydratase reaction, 100 mM Tris-HCl pH 7.8, 65 °C, apparent Km", "description": "UHPLC, 3-hydroxybutyryl-CoA formation on crotonyl-CoA hydratase Msed_0384"}, "[5]": {"substrate": "C[C@H](O)CC(=O)SCCNC(=O)CCNC(=O)[C@H](O)C(C)(C)COP(=O)(O)OP(=O)(O)OC[C@H]1O[C@@H](n2cnc3c(N)ncnc32)[C@H](O)[C@@H]1OP(=O)(O)O", "assay": "Ccr-coupled dehydratase assay, UHPLC", "settings": "dehydratase reaction, 100 mM Tris-HCl pH 7.8, 42 °C, 1 mM NADPH and NaHCO3 for coupling enzyme, apparent Km", "description": "Ccr-coupled dehydratase assay, UHPLC on crotonyl-CoA hydratase Msed_0384"}},
  "data": [
    {"protein": "B1", "values": [
      {"measurement": "Km", "setting": "[1]", "value": "180 ± 30", "unit": "µM"},
      {"measurement": "Km", "setting": "[2]", "value": "70 ± 30", "unit": "µM"},
      {"measurement": "Km", "setting": "[3]", "value": "500 ± 60", "unit": "µM"},
      {"measurement": "Km", "setting": "[4]", "value": "220 ± 20", "unit": "µM"},
      {"measurement": "Km", "setting": "[5]", "value": "50 ± 10", "unit": "µM"}
    ]}
  ]
}
